Test results from patent publication US20240101708A1 (Genentech, published 2024).

Molecular target: T1, recombinant human ZNRF3 extracellular domain (human, UniProt Q9ULT6 56-219)
T1 construct: extracellular domain; also called huZNRF3; human ZNRF3 ECD
T1 sequence (looked up): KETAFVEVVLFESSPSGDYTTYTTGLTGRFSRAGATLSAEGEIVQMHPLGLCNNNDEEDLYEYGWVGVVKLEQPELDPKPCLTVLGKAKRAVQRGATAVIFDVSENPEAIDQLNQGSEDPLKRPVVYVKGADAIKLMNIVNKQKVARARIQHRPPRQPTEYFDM
Assay: SPR Biacore 8K; antibody captured on Protein A; ZNRF3 ECD analyte; 25 C
Procedure: Antibodies were screened for binding to recombinant human RNF43 and ZNRF3 ECDs using a Biacore® 8 k instrument (GE Life Sciences). Briefly, antibodies diluted to 1 μg/ml in 1×HBSP buffer (Cytiva, BR100368) were captured on a Sensor Chip Protein A (GE Life Sciences) using a flow rate of 10 μl/minute and a contact time of 60 seconds. Binding of recombinant human RNF43 and ZNRF3 extracellular domain to the captured antibodies was analyzed at 25° C. using a single cycle kinetics method with a flow rate of 30 μl/minute, a contact time of 180 seconds and a dissociation time of 600 seconds. The concentration of recombinant human RNF43 and ZNRF3 extracellular domain in the single cycle kinetics were 0, 0.8, 4, 20, and 100 nM. Between cycles, the chip was regenerated using 10 mM Glycine HCl pH 1.5 injected for 30 seconds at 30 μl/minute. Data were evaluated using Biacore 8K Evaluation software (GE Life Sciences). Kinetic constants were obtained using a 1:1 binding model with the parameter RI set to zero. Cell surface ligase antibodies with sub-nanomolar affinities may provide advantages in certain instances, for example, in the degradation efficiency which is correlated with the durability of the ternary complex as shown in FIG. 5D.

Binder	Kd [pM]
ZNRF3-247 (antibody, V domains shown, Rat clone; VH/VL only) VH: EVQLVGSGEGLVQPGSSMKLSCVASGFTFSNSGMNWIRQAPKKGLEWIALIYYTNTYYADSVKGRFTISRDNSKNTLYLEMNSLRSEDTAMYYCAKRGLTGSVDYWGQGVMVTVSS VL: DIQMTQSPSFLSASVGDRVTINCKASQNINRYLNWYQQKLGEAPKRLIYDTSNLQTGIPSRFSGSGSGTDFTLTISSLQPEDFATYFCLQHDSFPNTFGTGTKLELK	161
ZNRF3-305 (antibody, V domains shown, Rat clone; VH/VL only) VH: EVLLQQSGAELVRPGSSVKISCKTSGYTFTDYYLHWVKQRPEQGLVWIGRINPINGKTVCIEKFKTKATLTADKSSNTAYMELSSLTSEDTATYFCTRGGLAYWGQGTLVTVSS VL: DIQMTQSPSSLPASLGERVTISCRASQGISNNLNWYQQKPDGTIKPLIYYTSNLQSGVPSRFSGSGSGTDYSLTIGSLEPEDFTMYYCQQDASFPPTFGAGTKLELK	7180
ZNRF3-269 (antibody, V domains shown, Rat clone; VH/VL only) VH: EIQLQESGPGLVKPSQSLSLTCSVTDDTITSGYDWSWIRKFPGNKMEWMGDISSSGHTNYNPSLQIRISITRDTSKNQFFLQLNSVTTEDSATYYCARGGFLFPFTFWGQGTLVTVSS VL: DIQMTQSPSSLPASLGERVTISCRASQVLNNNLNWYQQKPDGTIKPLLYYTSNLQSGVPSRFSGSGSGTDYSLTITSLDPEDFAIYYCQQDASFPPTFGGGTKLELK	312
ZNRF3-287 (antibody, V domains shown, Rat clone; VH/VL only) VH: EVQLVGSGGGLVQPGRSLKISCAASGFTFSYYGMAWVRQAPTRGLEWVATITYNGSKSYYRDSVKGRFTISREYAKSTLYLQMDDLTSEDTATYFCARRTTGMLFDYWGQGVLVTVSS VL: QAVLTQPNSVSMSLGSTVKLSCTLNSGNIENNFVHWYQQYEGRSPTTMIYNDDKRPDGVPDRFSGSIDSSSNSAFLTINNVEIGDEAIYFCHSFVSSIHIFGGGTKLTVL	191
ZNRF3-253 (antibody, V domains shown, Rat clone; VH/VL only) VH: EVQLVESGGGLVQPERSMKLSCAASGFTFSNYGMAWVRQAPTKGLEWVATINSDGSGTYYRGSVKGRFTISRDNAKSTLYLQMNSLRSDDTATYYCTRGRMLRIISFFDYWGQGVMVTVSS VL: DIQMTQSPASLSASLGETVSIECLASEDIANDLAWYQQKSGKSPQVLIYAASRVQDGVPSRFSGSGSGTRYSLKITDMQPEDVADYFCQQSYGFPLTFGSGTKLEIK	483
ZNRF3-254 (antibody, V domains shown, Rat clone; VH/VL only) VH: EVQLVESGGGLVQPERSMKLSCAASGFTFNNYGMAWVRQTPTKGLEWVATINSDGSGTHYRGSVKGRFTISRDNAKGTLYLQMHNLRSDDTATYYCARGRILRIITYFDSWGQGVVVTVSS VL: DIQMTQSPASLSASLGESVSIECLASEDIANDLAWYQQKSGRSPQVLIHAASRVQDGVPSRFSGSGSGTRYSLKITDMQPEDVADYFCQQSYGFPLTFGSGTKLEIK	104
ZNRF3-300 (antibody, V domains shown, Rat clone; VH/VL only) VH: EVQLVESGGGLVQPERSMKLSCAASGFTFSNYGMAWVRQAPTKGLEWVATINSDGSGTYYRGSVKGRFTISRDNARNTLYLEMNSLRSDDTATYYCTRGRILRIITYFDYWGQGVMVTVSS VL: DIQMTQSPASLSASVGETVSIECLASEDIANDLAWYQQKSGKSPQVLIYAASRVQDGVPSRFSGSGSGTRYSLRISDMQPEDVADYFCQQSYSFPLTFGSGTKLEIK	239
ZNRF3-265 (antibody, V domains shown, Rat clone; VH/VL only) VH: EVQLVESGGGLVQPGRSMKLSCVASGFSFSKYGMAWVRQAPTKALEWVAIISQDGSRIYYGGSVKGRFTLSRDNEKSTLHLHMNSLRSEDTATYYCARGSILRMITFFDYWGQGVTVTVSS VL: DIQMTQSPASLSASLGETVSIECLASEGISNDLAWYQQKSGKSPRLLIYAASRLQDGVPSRFSGSGSDTRFSLKISGMHPEDEADYFCQQSYGYPLTFGSGTKLEIK	28.6
ZNRF3-279 (antibody, V domains shown, Rat clone; VH/VL only) VH: QVQLQQSGAELVKPGTSVRLSCKASGYTFTHNHMNWIKQTTGQGLEWIGIINPGSGGTNYNVRFKGKATLTVDTSSSTAFMQLSSLTPEDSAVYYCARNLITIAGPFAYWGQGTLVTVSS VL: DTVLTQSPALTVSPGERVSISCRASEGVSSYIHWYQQKPGQQPKLLIYKASNLASGVPARFSGSGSGTDFTLTIDPVEADDTATYFCQQSWIDHTFGTGTKLELK	1660
ZNRF3-179 (antibody, V domains shown, Rat clone; VH/VL only) VH: EVQLAESGGGLEQPGRSLKLSCAASGFTFSNYDMAWVRQAPTKGLEWVASIITSGDTTYYRDSVKGRFTVSRDNAKSTLYLQMDSLRSEDTATYHCARHGVGSYDWFADWGQGTLVTVSS VL: DIVLTQSPALAVSLGQRATISCRASQSVTISGYNLMHWYQQKPGQQPKLLIYRASNLAFGIPARFSGSGSGTDFTLTINPVQADDITTYYCQQSRKSRTFGGGTKLELK	110
ZNRF3-182 (antibody, V domains shown, Rat clone; VH/VL only) VH: EVQLAESGGGLEQPGRSLKLSCAASGFTFSNYDMAWVRQAPTKGLEWVASIIKSGDTSYYRDSVKGRFTVSRDNAKSTLYLQMDSLRSEDTATYYCARHGVGSYDWFADWGQGTLVTVSS VL: DIVLTQSPALAVSLGQRATISCRASQSVTISGFNLMHWYQQKPGQQPKLLIYRASNLAFGIPARFSGSGSGTDFTLTINPVQADDFTTYYCQQSRKSRTFGGGTKLELK	60
ZNRF3-312 (antibody, V domains shown, Rat clone; VH/VL only) VH: QVQLQQSGAELVKPGSSVKMSCKASGYSFTTYYIYWINQRPGQGLEWIGRIGLGSGDTDYNEKFKGKATFTVDKFSNTAYLQLSSLTPEDTAVYYCARWDYGYRGFAYWGQGTLVTVSS VL: DVVMTQTPVSLSVSLGGQVSISCRSSQSFVHSDGNTYLNWYLQTPGQSPQLLIYKVSNRLSGVPDRFSGSGSGTYFTLKISRVEHDDLGVYYCGQASKIPLTFGSGTKLEIK	611
ZNRF3-219 (antibody, V domains shown, Rat clone; VH/VL only) VH: EVQLVESGGGLVQPGRSLKVSCAASGFTFSTFAMAWVRQAPKKGLEWVATITPGGSNTYYPDSVKGRFTISRDNAKSTLYLQMDSLRSEDTANYYCAKCGYPGITSFDYWGQGVMVTVSS VL: DIQMTQSPSFLSASVGDRVSINCKASQNIGKYLNWYQQELGEAPKRLIYNTNNLQTGIPSRFSGSGSGTDYTLTISGLQPEDFATYFCLQHNGFPLTFGSGTKLEIK	1900
ZNRF3-275 (antibody, V domains shown, Rat clone; VH/VL only) VH: QVQLKESGPGLVQPSQTLSLTCTVSGFSFNYYNVHWLRQPPGKGLEWLGVIWSGGNRDYNSALKPRLRISRDTSKTQVFLTLNSLQTEDTGIYYCTRMWGYGYNPFDHWGQGVMVTVSS VL: DIQMTQSPSFLSASLGDNITITCHASQDIKGWLAWYQQKSGNAPELLIYKASSLQSGVPSRFSGGGSGTEYVLTISNLQPDDIATYYCQLYHSFPFTFGSGTKLETK	56.5
ZNRF3-314 (antibody, V domains shown, Rat clone; VH/VL only) VH: QVQLKESGPGLVQPSQTLSLTCNVSGFSFNYYNVHWVRQPPGKGLEWLGVIWSGGNTDYNSALKPRLRISRDTSKSQVFLTLNSLQTEDTGIYYCNRMWGYGYNPFDYWGQGVMVTVSS VL: DIQMTQSPSFLSASLGNNITITCHASQDIKGWLAWYQQKSGNAPELLIYKTSSLQSGVPSRFSGSGSGTEYVLTISNLQPDDIATYYCQLYHSFPFTFGSGTKLEIK	104
ZNRF3-301 (antibody, V domains shown, Rat clone; VH/VL only) VH: QVQLKESGPGLVQPSQTLSLTCTVSGFSLTSYSVHWVRQHSGKSLEWMGRIWSDGDTSYNSAFTSRLSISRDTSKSQVFLKMNSLQTEDTGTYYCDRSGGSPFFDYWGQGVMVTVSS VL: QFVLTQSNSVSTNLGSTVKLSCERSIGNIGSNYVNWYQQYEGRSPTTMIYKFDQRPDGVPDRFSGSIDRSSNSVLLTINNVQTEDEADYFCQSYSSDMYIFGGGTKLTVL	97.4
